Target: rabbit muscle actin (rabbit) (UniProt P68135)
Assay: ELISA

Calmodulin-like calcium binding protein EhCaBP3 of Entamoeba histolytica (recombinant, wild type) (natural protein)
percent inhibition of binding by EGTA: 75%

From publication PMC3531509
